Experiments:
Test in all cases: pulldown
TRNAU1AP (Homo sapiens) = target: T1, TRNAU1AP (Homo sapiens) (UniProt Q9NX07); conditions: 20 nM protein, 1.5 uM RNA pool; 20 mM HEPES pH 7.8, 70 mM KCl, 10 mM NaCl, 10% glycerol, 2 mM DTT, 0.1 ug/uL BSA; 30 min, 4 C
T1 sequence: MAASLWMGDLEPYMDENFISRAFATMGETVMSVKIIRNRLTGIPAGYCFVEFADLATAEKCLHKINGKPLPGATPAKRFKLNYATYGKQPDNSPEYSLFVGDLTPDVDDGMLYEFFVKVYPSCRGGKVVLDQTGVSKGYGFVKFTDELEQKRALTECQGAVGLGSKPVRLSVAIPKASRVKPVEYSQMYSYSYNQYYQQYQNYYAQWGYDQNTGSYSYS

[1] = target: T2, T07F10.3 (Caenorhabditis elegans) (UniProt Q22318); conditions: 20 nM protein, 1.5 uM RNA pool; 20 mM HEPES pH 7.8, 70 mM KCl, 10 mM NaCl, 10% glycerol, 2 mM DTT, 0.1 ug/uL BSA; 30 min, 4 C
T2 sequence: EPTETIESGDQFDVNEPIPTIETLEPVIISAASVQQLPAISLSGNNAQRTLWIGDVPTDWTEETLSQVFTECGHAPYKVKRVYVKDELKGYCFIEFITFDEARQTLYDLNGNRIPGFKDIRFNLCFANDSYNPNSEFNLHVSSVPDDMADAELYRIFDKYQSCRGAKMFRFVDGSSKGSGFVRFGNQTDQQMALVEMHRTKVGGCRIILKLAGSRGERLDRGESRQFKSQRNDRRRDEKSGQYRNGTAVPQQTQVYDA

FUBP1 (Homo sapiens) = target: T3, FUBP1 (Homo sapiens) (UniProt A0ACI8RIE7); conditions: 20 nM protein, 1.5 uM RNA pool; 20 mM HEPES pH 7.8, 70 mM KCl, 10 mM NaCl, 10% glycerol, 2 mM DTT, 0.1 ug/uL BSA; 30 min, 4 C
T3 sequence: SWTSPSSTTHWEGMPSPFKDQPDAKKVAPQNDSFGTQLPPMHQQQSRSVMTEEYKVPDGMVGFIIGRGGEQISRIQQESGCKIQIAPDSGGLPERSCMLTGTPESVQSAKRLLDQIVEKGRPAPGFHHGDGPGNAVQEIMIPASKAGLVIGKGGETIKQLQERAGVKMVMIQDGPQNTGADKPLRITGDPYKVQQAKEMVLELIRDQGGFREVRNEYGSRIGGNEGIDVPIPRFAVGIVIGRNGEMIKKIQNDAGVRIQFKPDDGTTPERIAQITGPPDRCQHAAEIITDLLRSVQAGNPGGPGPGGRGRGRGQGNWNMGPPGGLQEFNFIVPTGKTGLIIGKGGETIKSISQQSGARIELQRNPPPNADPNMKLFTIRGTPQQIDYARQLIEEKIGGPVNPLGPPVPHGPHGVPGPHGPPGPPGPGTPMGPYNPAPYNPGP

LIN28A (Homo sapiens) = target: T4, LIN28A (Homo sapiens) (UniProt Q9H9Z2); conditions: 20 nM protein, 1.5 uM RNA pool; 20 mM HEPES pH 7.8, 70 mM KCl, 10 mM NaCl, 10% glycerol, 2 mM DTT, 0.1 ug/uL BSA; 30 min, 4 C (protocol of this paper; not …); cited from earlier work
T4 sequence: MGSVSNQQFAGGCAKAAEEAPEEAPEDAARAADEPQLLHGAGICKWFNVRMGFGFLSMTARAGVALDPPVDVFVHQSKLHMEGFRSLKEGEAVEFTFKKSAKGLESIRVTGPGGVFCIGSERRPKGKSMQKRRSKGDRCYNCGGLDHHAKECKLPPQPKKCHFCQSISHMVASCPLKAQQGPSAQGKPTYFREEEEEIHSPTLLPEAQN

[2] = target: T5, ENSXETG00000023721 (Xenopus tropicalis) (UniProt A0A803KLF2); conditions: 20 nM protein, 1.5 uM RNA pool; 20 mM HEPES pH 7.8, 70 mM KCl, 10 mM NaCl, 10% glycerol, 2 mM DTT, 0.1 ug/uL BSA; 30 min, 4 C
T5 sequence: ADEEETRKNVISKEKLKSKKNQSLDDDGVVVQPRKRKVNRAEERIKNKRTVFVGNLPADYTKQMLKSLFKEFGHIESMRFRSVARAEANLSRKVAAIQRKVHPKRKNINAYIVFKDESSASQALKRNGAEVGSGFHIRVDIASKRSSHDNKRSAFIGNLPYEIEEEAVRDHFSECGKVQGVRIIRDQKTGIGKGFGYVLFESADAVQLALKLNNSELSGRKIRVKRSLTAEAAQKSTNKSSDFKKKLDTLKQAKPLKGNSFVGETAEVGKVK

RBM45 (Homo sapiens) = target: T6, RBM45 (Homo sapiens) (UniProt Q8IUH3); conditions: 20 nM protein, 1.5 uM RNA pool; 20 mM HEPES pH 7.8, 70 mM KCl, 10 mM NaCl, 10% glycerol, 2 mM DTT, 0.1 ug/uL BSA; 30 min, 4 C
T6 sequence: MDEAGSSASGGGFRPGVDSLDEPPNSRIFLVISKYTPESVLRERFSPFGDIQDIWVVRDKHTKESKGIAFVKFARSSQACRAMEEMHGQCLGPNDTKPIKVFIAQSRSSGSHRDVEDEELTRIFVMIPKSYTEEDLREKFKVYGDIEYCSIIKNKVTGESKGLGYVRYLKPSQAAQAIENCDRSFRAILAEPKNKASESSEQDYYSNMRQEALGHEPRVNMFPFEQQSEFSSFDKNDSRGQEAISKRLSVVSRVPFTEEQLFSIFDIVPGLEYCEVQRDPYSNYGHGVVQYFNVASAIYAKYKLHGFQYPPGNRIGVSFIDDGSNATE

[3] = target: T7, tdp-1 (Caenorhabditis elegans) (UniProt D0VWM8); conditions: 20 nM protein, 1.5 uM RNA pool; 20 mM HEPES pH 7.8, 70 mM KCl, 10 mM NaCl, 10% glycerol, 2 mM DTT, 0.1 ug/uL BSA; 30 min, 4 C
T7 sequence: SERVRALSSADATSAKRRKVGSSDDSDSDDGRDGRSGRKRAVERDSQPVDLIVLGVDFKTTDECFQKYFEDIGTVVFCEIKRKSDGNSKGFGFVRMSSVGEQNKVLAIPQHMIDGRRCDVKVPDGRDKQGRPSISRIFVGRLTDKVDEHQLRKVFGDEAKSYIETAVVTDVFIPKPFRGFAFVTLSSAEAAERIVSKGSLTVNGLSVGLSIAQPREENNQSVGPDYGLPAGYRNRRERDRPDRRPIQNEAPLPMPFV

[4] = target: T8, PFI0820c (Plasmodium falciparum) (UniProt Q8I2Y5); conditions: 20 nM protein, 1.5 uM RNA pool; 20 mM HEPES pH 7.8, 70 mM KCl, 10 mM NaCl, 10% glycerol, 2 mM DTT, 0.1 ug/uL BSA; 30 min, 4 C
T8 sequence: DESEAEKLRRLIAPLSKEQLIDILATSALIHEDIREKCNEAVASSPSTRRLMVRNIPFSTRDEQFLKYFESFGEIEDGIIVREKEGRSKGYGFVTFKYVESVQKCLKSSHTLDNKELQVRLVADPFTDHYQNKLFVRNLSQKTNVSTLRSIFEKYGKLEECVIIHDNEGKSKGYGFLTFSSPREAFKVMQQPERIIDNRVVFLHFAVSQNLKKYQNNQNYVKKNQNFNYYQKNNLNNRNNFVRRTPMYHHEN

AAUUU [RNAcompete motif RNCMPT00813]
binding signal (z-score (mean of top ten 7-mers)) (TRNAU1AP (Homo sapiens)): 7.72

AUAAUAA [RNAcompete motif RNCMPT00821]
binding signal (z-score (mean of top ten 7-mers)) [1]: 8.08

AUGUAU [RNAcompete motif RNCMPT00822]
binding signal (z-score (mean of top ten 7-mers)) (FUBP1 (Homo sapiens)): 7.78

CGGAGG [RNAcompete motif RNCMPT00162]
binding signal (z-score (mean of top ten 7-mers)) (LIN28A (Homo sapiens)): 6.24

GAACG [RNAcompete motif RNCMPT00828]
binding signal (z-score (mean of top ten 7-mers)) [2]: 10.8

GACAGA [RNAcompete motif RNCMPT00805]
binding signal (z-score (mean of top ten 7-mers)) (RBM45 (Homo sapiens)): 12.2

GAGAGA [RNAcompete motif RNCMPT00816]
binding signal (z-score (mean of top ten 7-mers)) [3]: 11.6

GAGAGAA [RNAcompete motif RNCMPT00793]
binding signal (z-score (mean of top ten 7-mers)) [4]: 6.18
